B1: KRT13 (parent)
chain: YGGGLGGGFGGGFAGGFVDFGACD
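Note: lentivirally expressed fusions sorted by FACS into six bins by GFP to DsRed ratio, PSI derived from sequencing read proportions per bin multiplied by bin number.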

Variants of: B1
Assay: protein stability index of a GFP-peptide fusion (GPS, HEK-293T) (PSI 1-6); higher = more stable
Conditions: c terminus: a fixed tail appended
Variant YKGGLGGGFGGGFAGGFVDFGACD [G2K] has a protein stability index of 1.86. Work on YFGGLGGGFGGGFAGGFVDFGACD [G2F] yielded a protein stability index of 2.91. Variant YYGGLGGGFGGGFAGGFVDFGACD [G2Y] has a protein stability index of 1.63. In the case of YVGGLGGGFGGGFAGGFVDFGACD [G2V], the protein stability index is reported as 3.25. YSGGLGGGFGGGFAGGFVDFGACD [G2S] gave a protein stability index of 1.54. Variant YWGGLGGGFGGGFAGGFVDFGACD [G2W] has a protein stability index of 2.56. MGGGLGGGFGGGFAGGFVDFGACD [Y1M] gave a protein stability index of 2.43. HGGGLGGGFGGGFAGGFVDFGACD [Y1H] showed a protein stability index of 2.9. With EGGGLGGGFGGGFAGGFVDFGACD [Y1E] the protein stability index was 3.3. Variant KGGGLGGGFGGGFAGGFVDFGACD [Y1K] has a protein stability index of 2.68. AGGGLGGGFGGGFAGGFVDFGACD [Y1A] showed a protein stability index of 2.87. YGGGLGGGFGGGFAGGFVDFGACR [D24R] showed a protein stability index of 2.16. For YGGGLGGGFGGGFAGGFVDFGACS [D24S], the protein stability index was 2.43. With YGGGLGGGFGGGFAGGFVDFGACW [D24W] the protein stability index was 3.82. YGGGLGGGFGGGFAGGFVDFGACK [D24K] gave a protein stability index of 1.43. With YGGGLGGGFGGGFAGGFVDFGACH [D24H] the protein stability index was 1.49. In the case of YGGGLGGGFGGGFAGGFVDFGACN [D24N], the protein stability index is reported as 3.54. For YGGGLGGGFGGGFAGGFVDFGACI [D24I], the protein stability index was 5.23. YGGGLGGGFGGGFAGGFVDFGACT [D24T] showed a protein stability index of 1.91. For YGGGLGGGFGGGFAGGFVDFGACE [D24E], the protein stability index was 2.57. In the case of YGGGLGGGFGGGFAGGFVSFGACD [D19S], the protein stability index is reported as 2.12. Variant YGGGLGGGFGGGFAGGFVCFGACD [D19C] has a protein stability index of 1.86. YGGGLGGGFGGGFAGGFVQFGACD [D19Q] showed a protein stability index of 1.41. Work on YGGGLGGGFGGGFAGGFVYFGACD [D19Y] yielded a protein stability index of 2.33. Variant YGGGLGGGFGGGFAGGFVPFGACD [D19P] has a protein stability index of 1.32. For YGGGLMGGFGGGFAGGFVDFGACD [G6M], the protein stability index was 1.81. Work on YGGGLQGGFGGGFAGGFVDFGACD [G6Q] yielded a protein stability index of 2.38. YGGGLAGGFGGGFAGGFVDFGACD [G6A] showed a protein stability index of 2.4. In the case of YGGGLCGGFGGGFAGGFVDFGACD [G6C], the protein stability index is reported as 2.27. With YGGGLLGGFGGGFAGGFVDFGACD [G6L] the protein stability index was 2.86. With YGGGLGGGFVGGFAGGFVDFGACD [G10V] the protein stability index was 1.93. Variant YGGGLGGGFQGGFAGGFVDFGACD [G10Q] has a protein stability index of 2.21. For YGGGLGGGFFGGFAGGFVDFGACD [G10F], the protein stability index was 2.02. YGGGLGGGFRGGFAGGFVDFGACD [G10R] gave a protein stability index of 1.91. Work on YGGGLGGGFIGGFAGGFVDFGACD [G10I] yielded a protein stability index of 1.58. In the case of YGGGLGGGFSGGFAGGFVDFGACD [G10S], the protein stability index is reported as 2.15. Work on YGGGLGGGFEGGFAGGFVDFGACD [G10E] yielded a protein stability index of 1.96. Work on YGGGLGGGFMGGFAGGFVDFGACD [G10M] yielded a protein stability index of 3.61. YGGGLGGGFAGGFAGGFVDFGACD [G10A] showed a protein stability index of 2.01. YGGGLGAGFGGGFAGGFVDFGACD [G7A] gave a protein stability index of 2.41. For YGGGLGCGFGGGFAGGFVDFGACD [G7C], the protein stability index was 3.15. Variant YGGGLGYGFGGGFAGGFVDFGACD [G7Y] has a protein stability index of 2.36. YGGGLGHGFGGGFAGGFVDFGACD [G7H] showed a protein stability index of 1.92. With YGGGLGEGFGGGFAGGFVDFGACD [G7E] the protein stability index was 1.91. With YGGGLGDGFGGGFAGGFVDFGACD [G7D] the protein stability index was 1.89. YGGGLGPGFGGGFAGGFVDFGACD [G7P] gave a protein stability index of 1.84. YGGGLGGGFGGGFQGGFVDFGACD [A14Q] showed a protein stability index of 3.11. YGGGLGGGFGGGFNGGFVDFGACD [A14N] showed a protein stability index of 1.48. YGGGLGGGFGGGFEGGFVDFGACD [A14E] gave a protein stability index of 1.81. With YGGGLGGGFGGGFDGGFVDFGACD [A14D] the protein stability index was 1.86. YGGGLGGGFGGGFFGGFVDFGACD [A14F] gave a protein stability index of 2.8. With YGGGLGGGFGGGFWGGFVDFGACD [A14W] the protein stability index was 2.15. For YGGGLGGGFGGGFCGGFVDFGACD [A14C], the protein stability index was 2.47. With YGGGLGGGFGGGFSGGFVDFGACD [A14S] the protein stability index was 1.86. For YGGGLGGGFGGGFKGGFVDFGACD [A14K], the protein stability index was 1.82. YGGGLGGGFGGGFVGGFVDFGACD [A14V] showed a protein stability index of 1.89. For YGGGLGGCFGGGFAGGFVDFGACD [G8C], the protein stability index was 1.26. YGGGLGGEFGGGFAGGFVDFGACD [G8E] showed a protein stability index of 1.72. In the case of YGGGLGGRFGGGFAGGFVDFGACD [G8R], the protein stability index is reported as 1.67. Work on YGGGLGGKFGGGFAGGFVDFGACD [G8K] yielded a protein stability index of 1.24. In the case of YGGGLGGDFGGGFAGGFVDFGACD [G8D], the protein stability index is reported as 2.41. YGGGLGGAFGGGFAGGFVDFGACD [G8A] showed a protein stability index of 1.93. For YGGGLGGNFGGGFAGGFVDFGACD [G8N], the protein stability index was 1.78. For YGGGLGGTFGGGFAGGFVDFGACD [G8T], the protein stability index was 1.77. YGGGLGGHFGGGFAGGFVDFGACD [G8H] gave a protein stability index of 3. For YGGGLGGPFGGGFAGGFVDFGACD [G8P], the protein stability index was 1.75. Variant YGGGLGGGFGGGFAGGFVDFGNCD [A22N] has a protein stability index of 1.95. With YGGGLGGGFGGGFAGGFVDFGQCD [A22Q] the protein stability index was 2.34. In the case of YGGGLGGGFGGGFAGGFVDFGFCD [A22F], the protein stability index is reported as 2.1. YGGGLGGGFGGGFAGGFVDFGLCD [A22L] gave a protein stability index of 1.2. YGGGLGGGFGGGFAGGFVDFGHCD [A22H] showed a protein stability index of 1.54. For YGGGLGGGFGGGFAGGFVDFGWCD [A22W], the protein stability index was 1.75. Work on YGGGLGGGFGGGFAGGFVDFGDCD [A22D] yielded a protein stability index of 1.42. Work on YGGGLGGGFGGGFANGFVDFGACD [G15N] yielded a protein stability index of 2.55. Work on YGGGLGGGFGGGFAMGFVDFGACD [G15M] yielded a protein stability index of 4.08. YGGGLGGGFGGGFAIGFVDFGACD [G15I] gave a protein stability index of 3.13. Variant YGGGLGGGFGGGFATGFVDFGACD [G15T] has a protein stability index of 1.61. Variant YGGGLGGGFGGGFAEGFVDFGACD [G15E] has a protein stability index of 1.89. For YGGGLGGGFGGGFAWGFVDFGACD [G15W], the protein stability index was 1.58. YGGGLGGGFGGGFAYGFVDFGACD [G15Y] showed a protein stability index of 1.67. With YGGGLGGGFGGGFAGGFHDFGACD [V18H] the protein stability index was 2.44. In the case of YGGGLGGGFGGGFAGGFIDFGACD [V18I], the protein stability index is reported as 1.6. For YGGGLGGGFGGGFAGGFQDFGACD [V18Q], the protein stability index was 1.92. YGGGLGGGFGGGFAGGFCDFGACD [V18C] showed a protein stability index of 1.38. For YGGGLGGGFGGGFAGGFRDFGACD [V18R], the protein stability index was 2.95. For YGGGLGGGFGGGFAGGFGDFGACD [V18G], the protein stability index was 3.27. Variant YGGGLGGGFGGGFAGGFEDFGACD [V18E] has a protein stability index of 1.78. In the case of YGGGLGGGFGGGFAGGFNDFGACD [V18N], the protein stability index is reported as 1.5. With YGGGLGGGFGGGFAGGFPDFGACD [V18P] the protein stability index was 1.96. YGGGLGGGFGGGFAGGFVDPGACD [F20P] gave a protein stability index of 1.69. In the case of YGGGLGGGFGGGFAGGFVDLGACD [F20L], the protein stability index is reported as 1.56. Variant YGGGLGGGFGGGFAGGFVDAGACD [F20A] has a protein stability index of 1.69. YGGGLGGGFGGGFAGGFVDQGACD [F20Q] gave a protein stability index of 2.36. With YGGGLGGGFGGGFAGGFVDEGACD [F20E] the protein stability index was 2.18.

— the supplement of paper PMC10567573
